# Measurements as given in patent US20250121063A1, “COMPOSITIONS OF […] RESISTANCE TO P[…] RELATED METHODS OF USE” (priority 2023, published 2025).
# Entries after “also recorded” stand apart in the source; their conditions may differ.
# Tests used:
# [1] = tested on: LCMV (Lymphocytic choriomeningitis) clone 13; settings: mouse, in vivo
# P14 CD8+CD45.2+ T-cells = assay type: cell-based, mouse
# B16-OVA melanoma = test: Adoptive transfer of shRNA-transduced OT-1 cells into mice bearing B16-OVA melanoma; assay type: in vivo, mouse; settings: compared with shFF or HBSS
# From the text: Referring to FIG. 1, this indicates a normal mouse CD8+ treated with a construct expressing: control short hairpin RNA (shFF) or short hairpin RNA against mouse PTGIR gene. OT-1 is an anti-OVA T cell receptor that recognizes ovalbumin epitope (OVA) antigen variant E1 ([…]) restricted by H2-Kb. Mouse T cells that constitutively express OT-1 (“OT-1 cells”) were transduced with a construct expressing short hairpin RNA against mouse Ptgir gene (“shPTGIR”) or control short hairpin RNA (“shFF”; against firefly luciferase).
# At day 0, mice were inoculated with […] B16-OVA melanoma cells (these cells constitutively express the OVA protein and present OVA epitopes on cell surface MHC). On Day 7 mice received (i.v.) 1E6 adoptively transferred gene modified OT-1 cells or Hank's buffered saline solution (HBSS).
# At day 0, mice inoculated with B16-OVA melanoma. On Day 7 mice received adoptively transferred, gene modified CD8+ cells on Day 7 or saline (HBSS).
# Referring to FIG. 2, this example was performed in the same way as Example 2.
molecule,measurement,setting,value
"shPTGIR (nucleic acid, expressed or natural sequence) DNA: AGCACGAGAGGAUGAAGUUUACUAGUGAAGCCACAGAUGUAGUAAACUUCAUCCUCUCGUGCC",LAG-3 expression,[1],lower LAG-3 expression
same,absolute abundance of transduced CD45.2 T-cells,[1],higher absolute abundance; also recorded: greater absolute numbers
same,expansion of adoptively transferred cells (CD45.2+),[1],highly significant expansion
same,percentage of Tim-3,[1],lower percentage of Tim-3
same,phenotypic markers of exhaustion,[1],reduced phenotypic markers of exhaustion
same,IFNγ and TNFα response to antigen stimulation,P14 CD8+CD45.2+ T-cells,capable of responding to antigen stimulation
same,tumor growth,B16-OVA melanoma; 1E6 gene modified OT-1 cells i.v. on Day 7 after B16-OVA inoculation,reduced tumor growth
same,survival,"B16-OVA melanoma; mice with B16-OVA melanoma, OT-1 cells transferred Day 7",increased survival
